Residue numbers refer to the chain shown, from its start. Values belong to the binder of their own block, whether it stands above or below them. No end group written: not given here.
Experiments:
[1] = target: T1, N-terminal intrinsically disordered region (IDR) of ATG8 INTERACTING PROTEIN1 (ATI1) (Arabidopsis thaliana, UniProt O82775 1-180); test: NMR titration
T1 sequence (looked up): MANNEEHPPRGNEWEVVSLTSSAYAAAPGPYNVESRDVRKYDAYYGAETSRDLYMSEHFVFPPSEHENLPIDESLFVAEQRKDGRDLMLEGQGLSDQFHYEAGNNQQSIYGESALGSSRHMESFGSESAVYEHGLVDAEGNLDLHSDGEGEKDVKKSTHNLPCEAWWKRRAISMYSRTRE

[2] = target: T1, N-terminal intrinsically disordered …; test: MST

binding result [1]: binds
Binder: SSSKAFKFPMRPGKGQSGKRC (also: 15N-labeled) [15N-labeled AGO1 N-coil peptide, wild type]

Kd [2]: 11 µM
B1: His6-SUMO-NcGN^AGO1 (N-coil plus globular N-domain of Arabidopsis AGO1), wild type N-coil (domain or fragment, Arabidopsis thaliana, UniProt O04379-2 172-335, looked up)
chain: SSSKAFKFPMRPGKGQSGKRCIVKANHFFAELPDKDLHHYDVTITPEVTSRGVNRAVMKQLVDNYRDSHLGSRLPAYDGRKSLYTAGPLPFNSKEFRINLLDEEVGAGGQRREREFKVVIKLVARADLHHLGMFLEGKQSDAPQEAAQVADIVSRELPTSRIRY
modifications: red maleimide fluorophore on Cys192 (Monolith NT Protein Labeling Kit Red - Maleimide)

Kd [2]: 47 µM
B2: His6-SUMO-NcGN^AGO1 K178E (domain or fragment, Arabidopsis thaliana, UniProt O04379-2 172-335, looked up)
chain: B1 chain with K7E
modifications: red maleimide fluorophore on Cys192 (Monolith NT Protein Labeling Kit Red - Maleimide)
